# Laboratory results from the DeepSol protein solubility set.
# Experiment: soluble on expression in E. coli; label from the status in PepcDB or PDB records
row,Sequence,soluble on expression in E. coli
1,MRTLFLELMEQYVVAKNPKLMLRRSETVVERMLSNWMSICLYQYLKDSAGEPLYKLFKAIKHQVEKGPVDAVQKKAKYTLNDTGLLGDDVEYAPLTVSVIVQDEGIDAIPVKVLNCDTISQVKEKIIDQVYRTQPCSCWPKPDSVVLEWRPGSTAQILSDLDLTSQREGRWKRINTLMHYNVRDGATLILSKVGVSQQPEDSQQDLPGERHALLEEENRVWHLVRPTDEVDEGKSKRGSMKEKERTKAITEIYLTRLLSVKGTLQQFVDNFFQSVLAPGHAVPPAVKYFFDFLDEQAEKHDIRDEDTIHIWKTNSLPLRFWVNILKNPHFIFDVHVHEVVDASLSVIAQTFMDACTRTEHKLSRDSPSNKLLYAKEISTYKKMVEDYYKGIRQMVQVSDQDMNTHLAEISRAHTDSLNTLVALHQLYQYTQKYYDEIINALEEDPAAQKMQLAFRLQQIAAALENKVTDL,not soluble
2,MKTDGEFVSEHLMELITQQNLTINRVATLAGLNQSTVNAMFEGRSKRPTITTIRKVCGTLGISVHDFFDFPPYNEVEK,soluble
3,GMIKKEGPGWRIIFDSSRDNFSTLIGGETWAIELDKSEWKILVEVVMELCDQYKLVKEQLMGDEDITLELERRPWLAILNGDQYGWNLRLILSASGLFNRGAEVYWPRHVTNNVVNAMRSMWDSDYL,soluble
4,MAERRMFAKTIIDSDAFLDMPLSSQALYFHLAMRADDDGFINNPKKLQRMVGCGEDDLKLLMVKKFILVFESGVIVIKHWKIHNYIRSDRYKPTLYQEEKNQIVEKNSKAYTFKAESSVGGQPADYQRLPQESIVQSKLGQSQGSSSENDCLKMIYHFYEENGFGTLASKTSQDFKYWLQDFIQKGASQEEACQLILHALGIAVDRNKRNYGYVNAILKSWEQQNYLSVHEVLVNDKKQVLEHAPQMTEEYQELGF,not soluble
5,MGGIYRLSLKSTEATAERLSCDTRCNYEDRDLAYSPDGRWLAIARRFSNISEDIFIRDLASAHEKRLTQGLEDIRGLSWTPDSQALVFATEDSGSSNGFTLDINTAQIRSLDVEGMSYPSSVSAEGELVYHQYHRQFQMAYFSLGDKVPGSLFPLLYSGVSHRNPDYSPEAKRIVFVSSETGYNEIWTSDINGQKLEQLTQLKSRVAYPRWSPDGSRIAFIAPDDRNEGNRIFILDLTNKNITALASSYHNHGRPSWNWQGTAVLASTADGITEFYLDNRAPRVISSLSMAVGFAKSATELVFSRDGENGLWQINLTQPEHVEQLISTDAFRAGNNWVLTASGVYFKSSNGHEQLLNYWEASSQQVTSLLRVPRSSLSGFGSMTYIPEANRLVMTLDGFPQRDIILLKHKLLKLEHHHHHH,soluble
6,MNFEGKIALVTGASRGIGRAIAETLAARGAKVIGTATSENGAQAISDYLGANGKGLMLNVTDPASIESVLEKIRAEFGEVDILVNNAGITRDNLLMRMKDEEWNDIIETNLSSVFRLSKAVMRAMMKKRHGRIITIGSVVGTMGNGGQANYAAAKAGLIGFSKSLAREVASRGITVNVVAPGFIETDMTRALSDDQRAGILAQVPAGRLGGAQEIANAVAFLASDEAAYITGETLHVNGGMYMV,soluble
7,SGFNHVKPTEYKPRLLHISGDKNAKVAEVPLATSSLNSGDCFLLDAGLTIYQFNGSKSSPQEKNKAAEVARAIDAERKGLPKVEVFCETDSDIPAEFWKLLGGKGAIAAKHETA,soluble
8,TALSVLDLVMIGEGKTFADAIEESRQLARHVEQQHYSRYWIAEHHDMPGIGSAATSLVINEIANATRHIRVGAGGIMLPNHAPLVVAEQFGTLNTLHPGRIDLGLGRAPGTSGPTVRALRGAAPERDFGQDIAELRDYLADNGKRRVRGVPGAHDVPVWILGSSLFGADLAAKLGLPYAFASHFAPRYLLQAIAHYRANFQPSAQLAKPYVMVGMNLFAAASDAEADYLASSHRKWMLDLHVGRFGLLPKPQEGYLERLPDHERAVLDQVMACSVAGGPERVREGLRSLIEQTGADELMIDCRIHDPLARQRSHAYAAQ,not soluble
9,SENLYFQSKVTVGPDPSLVYRPDVDPEVAKDKASFRNYTSGPLLDRVFTTYKLMHTHQTVDFVRSKHAQFGGFSYKKMTVMEAVDLLDGLVDESDPDVDFPNSFHAFQTAEGIRKAHPDKDWFHLVGLLHDLGKVLALFGEPQWAVVGDTFPVGCRPQASVVFCDSTFQDNPDLQDPRYSTELGMYQPHCGLDRVLMSWGHDEYMYQVMKFNKFSLPPEAFYMIRFHSFYPWHTGRDYQQLCSQQDLAMLPWVREFNKFDIYTKCPDLPDVDKLRPYYQGLIDKYCPGILSW,soluble
10,AHHHHHHGSKLDDSFLTLFPEEDKVYEVLLSTKSNFTPIGVRRQGRVLKFRIFEGRSFRDLEECNYAIIQVVDDTELLAGLAYNLDVKFDVTQGIKVPIRRIEGYPWVEGEVKCRIVKVKDSIGESIAKDCTLTPIYIGIEKRVPRPISRADNVLLELAVLGTRLIVKKKRGLQIKDVAQKIEELYELYRKLGGKSEIAGKIMDILRKHYL,soluble
11,MGSDKIHHHHHHDGDDMSSCSSHSSFGSEYSEENKVNCTIDNFPVQAIALERCDGTLDSLFTKENLAMKRPQLRSAMFQIVMSLRVLQKAFRFTHNDLHTNNVVWCATDRKYLFYKHNSKYYRVPTFGRIFKIIDFGRAIYRFRGETMCSDSYHPSGDAGSQYNCEPYFNPNKPLLEPHFGFDLARLGCSLYELVDAEDVDDNGIINEEKLGDVERMIVSWCRDDKGRNILFKRDGDERYPGFKLYKMIARTSHDHTPEKMLAGYVFDTYLMAAKKCKKQERLMDVDAIPDYTEVVVGGDGKEVNATS,not soluble
12,MGSDKIHHHHHHMHLFKRAEMLNVIDTLATNYLKGKVRAVRLSVIALLSGGHILLEDIPGLGKTTLALALARALGLSFGRVQCTSDLLPSDITGLSILNRDENRFTFMPGPIFNNVVLMDEINRAMPKTQSALLEAMEERRVTVEGTTHPLPEPFLVIATQNPVEQVGTYPLPESQLDRFMVRSGIGYPPEAIEKAIIKGGSIRDGIRHLEPLVTVNDIIEAQRTVRESIYLSDKVVDYIHAIVAATRSHRAVTSGVSTRGAISMAETAKAHAYLEGRDYVIPEDVKAIAAPVGAHRLILGFDNENLDKGELLHAILATIPVPLA,not soluble
13,MPVRASIEPLTWENAFFGVNSAIVRITSEAPLLTPDALAPWSRVQAKIAASNTGELDALQQLGFSLVEGEVDLALPVNNVSDSGAVVAQETDIPALRQLASAAFAQSRFRAPWYAPDASGRFYAQWIENAVRGTFDHQCLILRAASGDIRGYVSLRELNATDARIGLLAGRGAGAELMQTALNWAYARGKTTLRVATQMGNTAALKRYIQSGANVESTAYWLYR,soluble
14,MGSDKIHHHHHHMDNNTLDEYRAVYLTAEDLRLAASILYNAYHDDPFFVDTLSSSDKFAYEQKLRAAIREELNTLWQQKQALIGLFDGAHLMGVACVVTQKVPLGEGRYWHWRLKMLLGTGWQSTQAMMKKESTILELLPSQRCGILQFIALAPNEQGKGLGHQLVQAVVSWCDEQPNLEGIGVFTTQEAHTHLFKQHDFVSLGELVIGSVTGQLLFYTGQQDE,not soluble
15,MGSDKIHHHHHHMPETIKNISKKDAILKAALQLFSHRSFDGTTIPEIARVANVGAGTIYRYFISKEDLVNELFVRVLDDFTEHLQVGLHGQMDTRTRFHHLFNNAWNYVMNNVEAFLFINLNDEATYLNDRSRKSFSRMWDYIAEMVEQGADKGELIKLDPKFVASLVYGPLIPISKRFNNDNRQASQALAKALEEATWRAISTD,not soluble
16,MGSDKIHHHHHHMSNHNWTRRDFIKGVGATTAGITLSACNPSGDRSATGLTQEALTIKPVIKSSDLEKPDLIVGYVPVNDCAPFAIAWKKGFFRKYGLNVQLNREASWATSRDGLIFGRLDAAPVVSGAVTNARIGAEGARHAPLCAAMTIHRHGNAMTMNKAMWDFGLRPWYEYQEKYGDGALEAFGRDFRGYFEKQPPENKVWAVVLSSAIYEYFVRYVSAAAGVDPLKEFRVIIVPPPQMVTNVRIGAMQAYMVAEPWNTRAITGNEGIGFTFAQGKEVWLGHPDRLLGVMESFIDQYPKTYRSLVKAMIEACQYCSKPENRQEVAELITDRSFTGARPKNKNLPITKLTAPGIIGSYNYGGFDGKDRTIPAADTTIFYDIPDNLPKQPAEHSTFLWRSRSLWLMTQAARWGQIKEFPKNAEQLAEKGWRTDLYRQIAAEMGIQCPQDDYKVEPPEVFIDKKGFDPSDPVGYLNSFAIRANAPTRFFLS,not soluble
17,MTVTSSAAIDIGGGGGGRRSDRLDSDRTSEDMSFIASPANIGASFVDVQNESSGSIDTATATLHELNYTFGMPPVTEESENMPQNYETVVELLPGEERAPINKLTEFPIEGGSLFVTNFRIVVILKDKEVEEALRFLVFPLQDIEQIDLAIPAFIHLSLKIGRMFTICFKTAEDAALVHKILYTAFQRLNRPISSIYTSRPQDWTSKNTDNPMQSLNAFAWKFSEAVDELDRDGKLPSWLLRADSVAQEITHIDFNRLGMSEHFQISSVNENFEVCPTYPEKIIVPKGITDDDIRKGAPYRSIGRFPAVIWRCRKTRAVLMRSSQPQVGILSWRNPTDEKIIEEAVKASRIEGEEKKQFIIMDARGYTSAFANRARSGGFENTEYYQQAKLEFLGLPNIHAVRGSFNNVRTMLHNLGPNEQLLTSLQTTGWLLNLSNLLVNAANCADHLSKGHSVLVHCSDGWDRTTQVTTLAKIMLDEYYRTVKGFEELIRRDWIAFGHKLYDRQLVAFGNWGTSDERSPVFLQFLEAVRHLQREQPTLFQFTHAYLIKLAKHAYSGLFGSFLFNSHKERREAMEKCKGTLVDIWRFIGPHNEEYVNQSFDEHYTGAVKPQIFSPKEERPLSGCTTPMNTSTSTNLVKSKSSESINSLNVDGSAKESSQQHPTCSTTPSDNTNSLPMSTSFIQQSLYQPKVRGVAAIDRDGVIRFEDDEQAMLRKKNKLRAEEIRRKDEKIEELRRRAVLDTNKVSPGQRQSYSESDVETTGTLERVMSDVSMVDPVNELPHFKPNTTWEGESGHCAYCKKEFNKLSVYVEDRQHHCRNCGRVVCEDCSKNRFSVIEEGKSVQKRACDSCYDSMHETDLKLSRATSLSEMSSFDSFGPSSPPASSTSSSSLNMLASMSPTRPQPIPISCKSSSNSISSPRPSPGEFSRHSSTQAVKG,not soluble
18,MGSDKIHHHHHHMELRPDLLFLDVELPDVLGLNLLSEMRDEVLWDMKVVFYTSYDKYLLQALRESAFDFLLKPFETGDLRVVIERYRKAVASIPATPSSSFSSSVSALMPQQGMFMISTVTGFKLLRLEEIGYFEYLKDKRQWQVVLFNQTRLNLKRNTKAEDIIGYSQAFIQISQSAIVNVNYLAMIDGKCCQLYPPFHDKSDLVISRSFLKGLQDRFFVL,not soluble
19,MLRNGRLFGHRVETGFPDLPILEVSLRTGVRVRDMDNLKRKQVMSQKEKYKRAVKGDIAYNMMRMWQGAVGPVPEDGLVSPAYVVVKPYAEANSTYFSYLFRTAAYMQEVNKFSRGIVADRNRLYWESFKQMPSLVPPRPEQDQIVTYLRTQDAHIACFIRAKRDLIALLTEQKLRIIDHAVTRGLDASVKLKPSDIEWLGEVPAHWEVKRLKFLAGNITSQTTTKADDEIYLALEHVQSWTGVARPLGGEVEFASTVKRFVADDVLFGKLRPYLAKVTRVVCAGVCVSEFLVLRSRQELILPAYLEQLLRCKRVIDLISSSTAGAKMPRADWNFIGNVRLPIPRKDEQEAILSHIGRETKDLDETIARAEDEIKLIREYRDRLIADAVTGQVDLRGWQPGPDDVVSDDDLAALGDDDAGSSDDEEADA,not soluble
20,MGSDKIHHHHHHMVASKQGLDLFQASGEPYEIGYRLGELARPVFAGYMRQSRAWQAVRRWRGAPFVHKLREAAHAHFPALLVELDGMAAGLGWTAEDMFLWNCRGELIHNVPDGCTTLAAHVGDTRFIAHNEDGDPFLGERCALVEVRPAGKPGFVSFHYPGSLPGHTFAASRAGVVQAINNLRIRAPVAGVPRMILARAVLDAASLDEALHILRDTPAASGFHHTLGCAGDARLVSVEVSARRCSVQTVPNLYGHANHMIHPGCEAEAQIVTDSSRERQARVNALLPALSRPLQPAALLDVLQDRAPSGLPIYRDDPLDPDGENTLATALFEIGGAGVSMKVYRQGQRAFDAFIARAACGQTGA,not soluble
